Results from patent US20110311550A1 (Scripps Research, published 2011).
Where a chain is given by its changes, count along the chain named.

B1: Fab P4 (Fab, V domains shown)
VH: not shown
VL: ELTQSPGTLSLSPGERATLSCRASQSVSSSNLAWFQHKSGRAPRLLIYGASNRAPDIPDRFSGSGSGTDFTLSISRLEPEDFAVYYCQRYGDSPPITFGQGTRLEIKR
B2: Fab N1 (Fab, V domains shown)
VH: VQLLEQSGPEVKKPGDSLRISCKMSGDSLVTTWIGWVRQKPGQGLEWMGIINPGDSSTNIYPGDSATRYGPSFQGQVTISIDKSTSTAYLQWNAVKPSDTGIYYCARHVPVPISGTFLWREREMHDFGYFDDWGQGTLVIVSS
VL: ELTQSPGTLSLSPGERATLSCRASQSVSSSYLAWYQQKPGQAPRLLIYGASNRAAGIPDRFSGSGSGADFTLTISRLEPEDFAVYYCQQYGSSLITFGQGTRLEIKR
B3: Fab N4 (Fab, V domains shown)
VH: B2 VH with A94N, P97A
VL: ELTLTQSPGTLSLSPGERATLSCRASQSVSNNYLAWYQQKPGQAPRLLIYGASSRATGIPDRFSGSGSGTGFTLIISRLEPEDFAVYYCQQYGSSSITFGQGTRLEIKR
B4: Fab N2 (Fab, V domains shown)
VH: B2 VH with A94T
VL: ELTQSPGTLSLFPGERATLSCRASQSILGRYLAWYQQKGGRAPRLLIFGASKRATGIPDRFSGSGSGTDFTLTIGRLEPEDFAVYYCQHYGSSITFGQGTRLDIKR
B5: Fab O1 (Fab, V domains shown)
VH: VQLLEQSGAEVKKAGESVRLSCKASGYRFGDYWIAWVRQLPGRAPEWMGIIYPDDSDTKYSPSFQGQVTISADKSIRTTFLDWGSLKASDTAIYYCARGCLGAKCYYPHYYYGLDVWGQGTTVIVSS
VL: ELTQSPSSLSASVGDRVTITCRATQGIDNYLNWYQQKPGKPPRLLIYGASSLQSGVPSRFSGGGSGTHFTLTITNLQPEDFATYYCQQSYSTPPETFGQGTKVEIKR
B6: Fab P3 (Fab, V domains shown)
VH: EVQLLESGGGVVQPGKSLRLSCAVSGFTLNTFAMHWVRQVPGKGLEWVALTSHDGSRQDYADSVRGRFTISRDNSKSMVFLLMNSLRAEDTAVYYCVRGGPAYYTYNDVLTGYAYVVGDFWGQGTLVTVSS
VL: not shown
B7: Fab P2 (Fab, V domains shown)
VH: EVQLLESGGGVVQPGRSLRLSCAASGFTLDTFTMHWVRQSPGKGLEWVALISHDANNKDYADSVKGRFTISRDNSKKLVYLQMDSLRSEDTAVYYCARGGPAYYLYSDVLTGFHNVVGDYWGQGTLVTVSA
VL: not shown
B8: Fab P1 (Fab, V domains shown)
VH: EVQLLESGGGVVQPGGSLRLSCAASGFTFTSFTMHWVRQAPGKGLEWVALISHDGSNKDYADSVRGRFTVSRDNSKKMVYLQMSSLRPDDAAVYYCARGGPAYYTYSDTLTGYHNVVGDYWGQGTLVTVSS
VL: ELTQSPGTLSLSPGERATLSCRASQVRGFLAWFQQKPGQAPRLLIYGASNRAPGIPDRFSGSGSGTDFTLTISRLEPEDFAVYYCQQYGDSPPITFGQGTRLEIKR
B9: Fab P1a (Fab, V domains shown)
VH: B8 VH
VL: ELTQSPGTLSLSPGERATLSCRTSQSVSSTYLAWYQQKPGQPPRLLIYGASNRAPGIPDRFSGSGSGTDFTLTISRLEPEDFAVYYCQQYGDSPPITFGQGTRLDIKR
B10: Fab V1 (Fab, V domains shown)
VH: VQLLEQSGAEVQKPGASVKVSCKPSGYIFTNFGISWVRQAPGQGLEWMAWINTYNGKTTYAQSLQGRVTLTTDPYTNTVFMELRSLRSDDTAVYYCARENEGEYVWGHFRSDYWGQGTLVTVSS
VL: ELTQSPSSLSASVGDRVTITCQASQDISNFLNWYQRRPGKAPNLLIYDATHLETGVPSRFSGSGFGTHFTLTINSLQPEDIGTYYCQHFDDVPSFTFGPGTKVDLKR
B11: Fab N3 (Fab, V domains shown)
VH: VQLLEQSGAEVKKPGDSLRISCKMSGDSLVWIGWVRQKPGQGLEWMGIINPGDSATNIYPGDSDTRYGPSFQGQVTISIDKSTSTAYLQWNAVKASDTGIYYCARHVPVPISGTFLWREREMHDLGYFDDWGQGTLVIVSS
VL: not shown

Assays:
Assay in all cases: ELISA, Fab on E1E2 antigen
[1] = molecular target: T1, HCV E1E2 antigen, isolate JFH (hepatitis C virus, isolate JFH, UniProt Q99IB8 192-383; Q99IB8 384-750)
T1 construct: also called JFH-1

[2] = molecular target: HCV E1E2 antigen, isolate UKN1B12.16 (hepatitis C virus, isolate UKN1B12.16)
[3] = molecular target: HCV E1E2 antigen, isolate UKN3A1.28c (hepatitis C virus, isolate UKN3A1.28c)
[4] = molecular target: HCV E1E2 antigen, isolate UKN5.15.7 (hepatitis C virus, isolate UKN5.15.7)
[5] = molecular target: HCV E1E2 antigen, isolate UKN6.5.8 (hepatitis C virus, isolate UKN6.5.8)
[6] = molecular target: HCV E1E2 antigen, isolate OH8 (hepatitis C virus, isolate OH8)
[7] = molecular target: HCV E1E2 antigen, isolate UKN2B1.1 (hepatitis C virus, isolate UKN2B1.1)
[8] = molecular target: HCV E1E2 antigen, isolate UKN4.21.16 (hepatitis C virus, isolate UKN4.21.16)
[9] = molecular target: HCV E1E2 antigen, isolate CH35 (hepatitis C virus, isolate CH35)
[10] = molecular target: HCV E1E2 antigen, isolate J6E3 (hepatitis C virus, isolate J6E3, UniProt P26660 192-383; P26660 384-750)

| Binder | OD 450 nm [1] [OD 450 nm] | OD 450 nm [2] [OD 450 nm] | OD 450 nm [3] [OD 450 nm] | OD 450 nm [4] [OD 450 nm] | OD 450 nm [5] [OD 450 nm] | OD 450 nm [6] [OD 450 nm] | OD 450 nm [7] [OD 450 nm] | OD 450 nm [8] [OD 450 nm] | OD 450 nm [9] [OD 450 nm] | OD 450 nm [10] [OD 450 nm] |
| --- | --- | --- | --- | --- | --- | --- | --- | --- | --- | --- |
| B1 | 0.45 | 0.59 | 1.07 | 0.31 | 0.19 | 1.15 | 0.09 | 0.99 | 0.52 | – |
| B2 | 0.99 | 0.65 | 1.08 | 0.43 | 0.29 | 1.13 | 0.33 | 0.93 | 0.59 | 0.64 |
| B3 | 1.57 | 1.06 | 1.73 | 0.71 | 0.44 | 1.75 | 0.48 | 1.49 | 1.03 | 0.99 |
| B4 | 1.34 | 0.81 | 1.36 | 0.46 | 0.4 | 1.44 | 0.44 | 1.09 | 0.82 | 0.92 |
| B5 | 0 | 0.17 | 0.48 | 0.1 | 0.02 | 0.44 | 0.02 | 0.57 | 0.27 | 0.05 |
| B6 | 0 | 0.2 | 0.33 | 0.06 | 0.03 | 0.36 | 0 | 0.15 | 0.11 | 0.11 |
| B7 | 0.88 | 0.59 | 1.05 | 0.25 | 0.22 | 1 | 0.18 | 0.78 | 0.47 | 0.6 |
| B8 | – | 0.26 | 0.98 | 0.17 | 0.06 | 0.8 | 0.03 | 0.62 | 0.27 | 0.08 |
| B9 | 0 | 0.15 | 0.18 | -0.04 | 0.05 | 0.24 | 0 | 0.04 | 0.08 | 0.03 |
| B10 | – | 0.16 | 0.06 | 0.3 | 0.05 | 1.35 | 0.3 | 1.02 | 0.77 | – |
| B11 | 1.2 | 0.62 | 1.27 | 0.37 | 0.23 | 1.32 | 0.29 | 0.96 | 0.59 | 0.66 |
